Test results from patent US20050020492A1 (MERCK, published 2005).
Read-outs that look alike come from different tables or passages of the source. Positions of bridges follow the written chain, without caps; N, C: chain ends.

Legend:
human MCH-1R [1] = biological target: T1, human MCH-1R (human, UniProt Q99705 1-353); assay: ratio of the two SPA IC50s
T1 construct: Function: 293AEQ17/MCH-1R cells; also called hMCH-1R

human MCH-2R [2] = biological target: T2, human MCH-2R (human, UniProt Q969V1 1-340); assay: SPA, displacement of [125I]-[Phe13,Tyr19]-hMCH, MCH-2R membranes
T2 construct: Function: 293AEQ17/MCH-2R cells; also called hMCH-2R
Protocol: (§1) After equilibrating at room temperature for 3 hours, the plates were read in a TopCount (Packard, Meriden, Conn.). IC₅₀ calculations were performed using Prism 3.0 (GraphPad. Software, San Diego, Calif.). The IC₅₀ values were measured in three different experiments.

human MCH-2R [3] = biological target: T2, human MCH-2R; assay: cell-based or functional assay
human MCH-1R [4] = biological target: T1, human MCH-1R; assay: cell-based or functional assay
human MCH-1R [5] = biological target: T1, human MCH-1R; assay: SPA, displacement of [125I]-[Phe13,Tyr19]-hMCH, CHO/MCH-1R membranes
Protocol: as §1

human MCH-2R [6] = biological target: T2, human MCH-2R; assay: cell-based or functional assay; remark: listed apart in the source
human MCH-1R [7] = biological target: T1, human MCH-1R; assay: cell-based or functional assay; remark: listed apart in the source
human MCH-2R [8] = biological target: T2, human MCH-2R; assay: SPA, displacement of [125I]-[Phe13,Tyr19]-hMCH, MCH-2R membranes; remark: listed apart in the source
Protocol: as §1

T1 sequence (Q99705 whole entry): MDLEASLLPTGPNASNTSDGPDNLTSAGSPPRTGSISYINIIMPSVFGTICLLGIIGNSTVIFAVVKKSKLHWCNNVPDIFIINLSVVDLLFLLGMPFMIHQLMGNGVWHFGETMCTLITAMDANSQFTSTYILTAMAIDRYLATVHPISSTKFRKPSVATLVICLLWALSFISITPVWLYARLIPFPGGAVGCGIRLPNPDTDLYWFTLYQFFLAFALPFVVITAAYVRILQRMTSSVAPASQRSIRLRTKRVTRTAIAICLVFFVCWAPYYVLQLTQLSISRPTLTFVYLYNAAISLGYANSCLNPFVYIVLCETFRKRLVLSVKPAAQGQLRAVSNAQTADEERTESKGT
T2 sequence (Q969V1 whole entry): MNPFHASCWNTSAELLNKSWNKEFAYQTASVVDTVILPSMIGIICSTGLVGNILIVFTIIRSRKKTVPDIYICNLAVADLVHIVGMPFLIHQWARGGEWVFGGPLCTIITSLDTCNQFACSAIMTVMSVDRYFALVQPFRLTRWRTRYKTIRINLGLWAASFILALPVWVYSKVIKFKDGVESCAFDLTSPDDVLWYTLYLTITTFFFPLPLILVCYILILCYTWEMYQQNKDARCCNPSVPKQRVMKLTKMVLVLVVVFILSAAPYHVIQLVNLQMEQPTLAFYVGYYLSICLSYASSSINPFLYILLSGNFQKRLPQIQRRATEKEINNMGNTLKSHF

Binder	Selectivity 2/1 (MCH-2R/MCH-1R IC50 ratio) (human MCH-1R [1])	IC50 (human MCH-2R [2])	Activation %, aequorin bioluminescence (human MCH-2R [3])	Activation %, aequorin bioluminescence (human MCH-1R [4])	Selectivity 2/1 (MCH-2R/MCH-1R EC50 activity ratio) (human MCH-1R [4])	IC50 (human MCH-1R [5])	EC50, aequorin bioluminescence (human MCH-2R [3])	EC50, aequorin bioluminescence (human MCH-1R [4])	Activation %, aequorin bioluminescence (human MCH-2R [6])	Activation %, aequorin bioluminescence (human MCH-1R [7])	EC50, aequorin bioluminescence (human MCH-2R [6])	EC50, aequorin bioluminescence (human MCH-1R [7])	IC50 (human MCH-2R [8])
RCMLXRVYRPC (HELM PEPTIDE1{[ac].R.C.M.L.[O=C([C@H](Cc1ccc2ccccc2c1)N[*:1])[*:2]].R.V.Y.R.P.C.[am]}$PEPTIDE1,PEPTIDE1,3:R3-12:R3$$$V2.0; SMILES CSCC[C@@H]1NC(=O)[C@@H](NC(=O)[C@H](CCCNC(=N)N)NC(C)=O)CSSC[C@@H](C(N)=O)NC(=O)[C@@H]2CCCN2C(=O)[C@H](CCCNC(=N)N)NC(=O)[C@H](Cc2ccc(O)cc2)NC(=O)[C@H](C(C)C)NC(=O)[C@H](CCCNC(=N)N)NC(=O)[C@H](Cc2ccc3ccccc3c2)NC(=O)[C@H](CC(C)C)NC1=O) [SEQ. ID. NO. 21 (Nal(2′)^10 analog of Ac-hMCH(6-16)-NH2)]	14 ratio	18 nM	105%	7%	–	1.3 nM	81 nM	> 10000 nM	–	–	–	–	–
XCMLGRVYRPC (position 6 is Gva, des-amino-arginine (5-guanidinovaleric acid), no acetyl; C-terminal amide; disulfide cycle) [SEQ. ID. NO. 3 (Gva^6 analog of Ac-hMCH(6-16)-NH2)]	–	–	–	–	–	–	–	–	102%	49%	–	–	–
Ac-RCMLPRVYRPC-NH2 (disulfide 2-11 (inferred)) [SEQ. ID. NO. 22 (Pro^10 analog of Ac-hMCH(6-16)-NH2)]	5 ratio	3500 nM	13%	10%	–	760 nM	> 10000 nM	> 10000 nM	–	–	–	–	–
Ac-RCMLRRVYRPC-NH2 (disulfide 2-11 (inferred)) [SEQ. ID. NO. 23 (Arg^10 analog of Ac-hMCH(6-16)-NH2)]	0.7 ratio	420 nM	38%	7%	–	640 nM	1660 nM	> 10000 nM	–	–	–	–	–
Ac-RCMLERVYRPC-NH2 (disulfide 2-11 (inferred), also called Glu^10 peptide) [SEQ. ID. NO. 28 (Glu^10 analog of Ac-hMCH(6-16)-NH2)]	–	–	22%	21%	–	290 nM	> 10000 nM	> 10000 nM	–	–	–	–	–
Ac-RCMLSRVYRPC-NH2 (disulfide 2-11 (inferred), also called Ser^10 peptide) [SEQ. ID. NO. 26 (Ser^10 analog of Ac-hMCH(6-16)-NH2)]	100 ratio	55 nM	87%	120%	0.7 ratio	0.54 nM	89 nM	130 nM	–	–	–	–	–
Ac-RCMLKRVYRPC-NH2 (disulfide 2-11 (inferred)) [SEQ. ID. NO. 24 (Lys^10 analog of Ac-hMCH(6-16)-NH2)]	86 ratio	1460 nM	40%	43%	1 ratio	17 nM	6050 nM	5700 nM	–	–	–	–	–

Continued by falling IC50 (human MCH-1R [5]), values first:

Selectivity 2/1 (MCH-2R/MCH-1R IC50 ratio) (human MCH-1R [1])	IC50 (human MCH-2R [2])	Activation %, aequorin bioluminescence (human MCH-2R [3])	Activation %, aequorin bioluminescence (human MCH-1R [4])	Selectivity 2/1 (MCH-2R/MCH-1R EC50 activity ratio) (human MCH-1R [4])	IC50 (human MCH-1R [5])	EC50, aequorin bioluminescence (human MCH-2R [3])	EC50, aequorin bioluminescence (human MCH-1R [4])	Activation %, aequorin bioluminescence (human MCH-2R [6])	Activation %, aequorin bioluminescence (human MCH-1R [7])	EC50, aequorin bioluminescence (human MCH-2R [6])	EC50, aequorin bioluminescence (human MCH-1R [7])	IC50 (human MCH-2R [8])	Binder
–	–	–	–	–	0.35 nM	–	–	–	130%	55 nM	107 nM	47 nM	XCMLGRVYRPC (D-Arg at position 6, no acetyl; C-terminal amide; disulfide cycle) [SEQ. ID. NO. 4 (D-Arg^6 analog lacking an Ac group)]
1800 ratio	490 nM	86%	126%	4.7 ratio	0.28 nM	240 nM	51 nM	–	–	–	–	–	Ac-RCMLNRVYRPC-NH2 (disulfide 2-11 (inferred), also called Asn^10 peptide) [SEQ. ID. NO. 25 (Asn^10 analog of Ac-hMCH(6-16)-NH2)]
21 ratio	1.9 nM	97%	115%	0.4 ratio	0.1 nM	–	–	–	–	–	–	–	RCMLXRVYRPC (N-terminal acetyl; Nle (norleucine) at position 10; C-terminal amide; disulfide cycle) [SEQ. ID. NO. 18 (Nle^10 analog of Ac-hMCH(6-16)-NH2)]
19 ratio	1.9 nM	88%	75%	0.75 ratio	0.1 nM	50 nM	66 nM	–	–	–	–	–	Ac-RCMLFRVYRPC-NH2 (disulfide 2-11 (inferred)) [SEQ. ID. NO. 20 (Phe^10 analog of Ac-hMCH(6-16)-NH2)]
